Among the data in the supplement of paper PMC10567573 are protein stability index values, retold here.

± gives the standard deviation.

The nature of this data set: protein stability index of a GFP-peptide fusion (GPS, HEK-293T) (PSI 1-6); higher = more stable. Particulars: c terminus: a fixed tail appended.
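Note: 24-mer peptide tiles fused after GFP, lentivirally expressed, FACS-sorted into six equal bins by GFP/DsRed ratio, decoded by Illumina sequencing, PSI is the read-weighted mean bin number.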

With FMLEIVTPTSLSSLSNAVANTMEH [FBXO33], the protein stability index reads like this: (treatment: DMSO) 2.77 ± 0.75; (treatment: MLN4924 1 uM, 8 h) 2.7 ± 0.55.

With VKCNGALINTSDTVQHGAVYSLEP [SDE2], the protein stability index is 3.57 ± 0.5 (treatment: DMSO) and 3.75 ± 0.33 (treatment: MLN4924 1 uM, 8 h).

The sequence EEPVFEAVINWVKHAKKEREESLP [KLHL12] gave a protein stability index (treatment: DMSO) of 4.16 ± 0.48 and a protein stability index (treatment: MLN4924 1 uM, 8 h) of 4.17 ± 0.28.

For TPLTEGSEDLDGHSDPEESFARDL [RETREG3], the protein stability index worked out at 5.51 ± 0.18 (treatment: DMSO) and 5.524 ± 0.053 (treatment: MLN4924 1 uM, 8 h).

In the case of QHHHHHHHHHGRDFLLRAASFDVC [RHOBTB2], the protein stability index was found to be 2.55 ± 0.14 (treatment: DMSO) and 2.58 ± 0.2 (treatment: MLN4924 1 uM, 8 h).

As for LQGVRLSENVVNRMKEPSSPPPAP [CHCHD6], the protein stability index is 4.62 ± 0.32 (treatment: DMSO) and 4.939 ± 0.047 (treatment: MLN4924 1 uM, 8 h).

As for GLEALAGGDLMPAPADPTAREGLA [FCHO1], the protein stability index came to 5.2 ± 0.15 (treatment: DMSO) and 5.23 ± 0.21 (treatment: MLN4924 1 uM, 8 h).

As for NYCLLFLIYTVMLAFRSGSDNLLV [SLC35F2], the protein stability index amounted to 3.04 ± 0.44 (treatment: DMSO) and 3.29 ± 0.79 (treatment: MLN4924 1 uM, 8 h).

On to NRLSIGLQSLDDTELRLLGRTHSA [RSAD1], for which the protein stability index by setting is: (treatment: DMSO) 3.77 ± 0.22; (treatment: MLN4924 1 uM, 8 h) 3.79 ± 0.28.

Regarding CTHCSKSFRQRAGLIMHQVTHFRG [ZNF449], the protein stability index worked out at 2.46 ± 0.53 (treatment: DMSO) and 3.02 ± 0.52 (treatment: MLN4924 1 uM, 8 h).

On to EEETQFYISETVLAIDAIHQLGFI [STK38L], for which the protein stability index came out at 2.48 ± 0.51 (treatment: DMSO) and 2.58 ± 0.2 (treatment: MLN4924 1 uM, 8 h).

With KLLKQMRILWKKIQENQRNLYEEG [TRIM43], the protein stability index by setting is: (treatment: DMSO) 1.88 ± 0.61; (treatment: MLN4924 1 uM, 8 h) 1.85 ± 0.081.

As for KIWPEIKVPRPDALDNESWGFVHP [RETREG3], the protein stability index runs as follows: (treatment: DMSO) 2.68 ± 0.48; (treatment: MLN4924 1 uM, 8 h) 2.57 ± 0.54.

SKDWVFLNYTYKRFEGLTQRGSIP [STK38L]: the protein stability index runs as follows: (treatment: DMSO) 2.54 ± 0.78; (treatment: MLN4924 1 uM, 8 h) 2.48 ± 1.

With LLWRKQLFCDVTLTAQGQQFHCHK [KLHL14], the protein stability index is, setting by setting: (treatment: DMSO) 2.23 ± 0.41; (treatment: MLN4924 1 uM, 8 h) 1.99 ± 0.23.

QTSSSSSQSETSSAVSTPSPVTRT [DLC1]: the protein stability index is, setting by setting: (treatment: DMSO) 5.45 ± 0.22; (treatment: MLN4924 1 uM, 8 h) 5.28 ± 0.38.

As to PKTSGTRATSLGRPEEEEDELAHR [CPOX], the protein stability index is, setting by setting: (treatment: DMSO) 5.42 ± 0.36; (treatment: MLN4924 1 uM, 8 h) 5.42 ± 0.19.

As to DRFAQDSEMKKCSDYESIEVPDSY [PPEF2], the protein stability index amounted to 5.15 ± 0.23 (treatment: DMSO) and 5.15 ± 0.34 (treatment: MLN4924 1 uM, 8 h).

In turn, LASYLDRVRSLETENRRLESKIRE [KRT18] came in with a protein stability index (treatment: DMSO) of 3.58 ± 0.34 and a protein stability index (treatment: MLN4924 1 uM, 8 h) of 3.7 ± 0.11.

RDVPESPQHAADTPKSGEPRVPEE [YJU2B]: the protein stability index came out at 5.44 ± 0.19 (treatment: DMSO) and 5.53 ± 0.24 (treatment: MLN4924 1 uM, 8 h).

Turning to VVKVLLESGASIEDHNENGHTPLM [ANKRD17], the protein stability index by setting is: (treatment: DMSO) 3.17 ± 0.25; (treatment: MLN4924 1 uM, 8 h) 3.25 ± 0.26.

As to LKKKQKRQAELLEKRLQEIEELER [SRPK2], the protein stability index came to 4.2 ± 0.29 (treatment: DMSO) and 4.24 ± 0.49 (treatment: MLN4924 1 uM, 8 h).

DSDDDDDVAVTVDRDRFMDEFFEQ [STX1A] returned a protein stability index (treatment: DMSO) of 5.36 ± 0.49 and a protein stability index (treatment: MLN4924 1 uM, 8 h) of 5.43 ± 0.32.

Consider EGREAPALVAAGGAPEDDEEDDGR [DENND6A], for which the protein stability index (treatment: DMSO) was found to be 5.68 ± 0.29 and the protein stability index (treatment: MLN4924 1 uM, 8 h) was found to be 5.72 ± 0.3.

For GGGGLHSVGTYIIDLLTFLTGQKA [GFOD1], the protein stability index reads like this: (treatment: DMSO) 2.1 ± 0.31; (treatment: MLN4924 1 uM, 8 h) 1.98 ± 0.36.

As to SRAPQLHLEYRFYKQLGSAGEGLP [CSNK1G1], the protein stability index by setting is: (treatment: DMSO) 2.73 ± 0.44; (treatment: MLN4924 1 uM, 8 h) 2.84 ± 0.19.

On to LLQCLEDLDANLRKLNSRLFVIRG [CRY1], for which the protein stability index reads like this: (treatment: DMSO) 2.67 ± 0.25; (treatment: MLN4924 1 uM, 8 h) 2.68 ± 0.29.

As to DSQQPGKRRKDSEEEAASPEGKRV [FANCE], the protein stability index stood at 5.66 ± 0.13 (treatment: DMSO) and 5.5 ± 0.25 (treatment: MLN4924 1 uM, 8 h).

Regarding LALSPDLSLSNATVLTRSLFLGRI [FANCE], the protein stability index amounted to 2.35 ± 0.36 (treatment: DMSO) and 2.24 ± 0.3 (treatment: MLN4924 1 uM, 8 h).

As for VFLHLLLLFKLVAPVTFRHHRYDD [CPN1], the protein stability index runs as follows: (treatment: DMSO) 3.12 ± 0.13; (treatment: MLN4924 1 uM, 8 h) 3.14 ± 0.23.

Take EISGPLTSANKITLVSSGSGTMGA [FLOT1]: the protein stability index runs as follows: (treatment: DMSO) 3.46 ± 0.046; (treatment: MLN4924 1 uM, 8 h) 3.5 ± 0.26.

Consider LSTNDKTIKLWKITERDKRPEGYN [PPP2R2C], for which the protein stability index reads like this: (treatment: DMSO) 3.6 ± 0.28; (treatment: MLN4924 1 uM, 8 h) 3.79 ± 0.61.

Turning to DARYKLHHHLHKTLREITDQEHNV [TEKT4], the protein stability index (treatment: DMSO) stood at 3.77 ± 0.29 and the protein stability index (treatment: MLN4924 1 uM, 8 h) was 4.02 ± 0.14.

RHAQTISGHALRILIVDWDVHHGN [HDAC6]: the protein stability index was determined as 2.18 ± 0.18 (treatment: DMSO) and 2.34 ± 0.4 (treatment: MLN4924 1 uM, 8 h).

On to YLRSKLCSLYENDCIFDKFECAWN [PPP2R2C], for which the protein stability index reads like this: (treatment: DMSO) 2.81 ± 0.57; (treatment: MLN4924 1 uM, 8 h) 2.61 ± 0.66.

In the case of AAKIIPHSRVAKPHQREKIDKEIE [PLK2], the protein stability index (treatment: DMSO) came out at 5.02 ± 0.42 and the protein stability index (treatment: MLN4924 1 uM, 8 h) was 4.7 ± 0.4.
